B1: Partner and localizer of BRCA2 (Homo sapiens), Q86YC2 (parent)
chain: MDEPPGKPLSCEEKEKLKEKLAFLKREYSKTLARLQRAQRAEKIKHSIKKTVEEQDCLSQQDLSPQLKHSEPKNKICVYDKLHIKTHLDEETGEKTSITLDVGPESFNPGDGPGGLPIQRTDDTQEHFPHRVSDPSGEQKQKLPSRRKKQQKRTFISQERDCVFGTDSLRLSGKRLKEQEEISSKNPARSPVTEIRTHLLSLKSELPDSPEPVTEINEDSVLIPPTAQPEKGVDTFLRRPNFTRATTVPLQTLSDSGSSQHLEHIPPKGSSELTTHDLKNIRFTSPVSLEAQGKKMTVSTDNLLVNKAISKSGQLPTSSNLEANISCSLNELTYNNLPANENQNLKEQNQTEKSLKSPSDTLDGRNENLQESEILSQPKSLSLEATSPLSAEKHSCTVPEGLLFPAEYYVRTTRSMSNCQRKVAVEAVIQSHLDVKKKGFKNKNKDASKNLNLSNEETDQSEIRMSGTCTGQPSSRTSQKLLSLTKVSSPAGPTEDNDLSRKAVAQAPGRRYTGKRKSACTPASDHCEPLLPTSSLSIVNRSKEEVTSHKYQHEKLFIQVKGKKSRHQKEDSLSWSNSAYLSLDDDAFTAPFHRDGMLSLKQLLSFLSITDFQLPDEDFGPLKLEKVKSCSEKPVEPFESKMFGERHLKEGSCIFPEELSPKRMDTEMEDLEEDLIVLPGKSHPKRPNSQSQHTKTGLSSSILLYTPLNTVAPDDNDRPTTDMCSPAFPILGTTPAFGPQGSYEKASTEVAGRTCCTPQLAHLKDSVCLASDTKQFDSSGSPAKPHTTLQVSGRQGQPTCDCDSVPPGTPPPIESFTFKENQLCRNTCQELHKHSVEQTETAELPASDSINPGNLQLVSELKNPSGSCSVDVSAMFWERAGCKEPCIITACEDVVSLWKALDAWQWEKLYTWHFAEVPVLQIVPVPDVYNLVCVALGNLEIREIRALFCSSDDESEKQVLLKSGNIKAVLGLTKRRLVSSSGTLSDQQVEVMTFAEDGGGKENQFLMPPEETILTFAEVQGMQEALLGTTIMNNIVIWNLKTGQLLKKMHIDDSYQASVCHKAYSEMGLLFIVLSHPCAKESESLRSPVFQLIVINPKTTLSVGVMLYCLPPGQAGRFLEGDVKDHCAAAILTSGTIAIWDLLLGQCTALLPPVSDQHWSFVKWSGTDSHLLAGQKDGNIFVYHYS

Variants of: B1
Conditions: with brca1_human BRCA1, P38398
Chain of brca1_human BRCA1, P38398 (P38398 whole entry, looked up): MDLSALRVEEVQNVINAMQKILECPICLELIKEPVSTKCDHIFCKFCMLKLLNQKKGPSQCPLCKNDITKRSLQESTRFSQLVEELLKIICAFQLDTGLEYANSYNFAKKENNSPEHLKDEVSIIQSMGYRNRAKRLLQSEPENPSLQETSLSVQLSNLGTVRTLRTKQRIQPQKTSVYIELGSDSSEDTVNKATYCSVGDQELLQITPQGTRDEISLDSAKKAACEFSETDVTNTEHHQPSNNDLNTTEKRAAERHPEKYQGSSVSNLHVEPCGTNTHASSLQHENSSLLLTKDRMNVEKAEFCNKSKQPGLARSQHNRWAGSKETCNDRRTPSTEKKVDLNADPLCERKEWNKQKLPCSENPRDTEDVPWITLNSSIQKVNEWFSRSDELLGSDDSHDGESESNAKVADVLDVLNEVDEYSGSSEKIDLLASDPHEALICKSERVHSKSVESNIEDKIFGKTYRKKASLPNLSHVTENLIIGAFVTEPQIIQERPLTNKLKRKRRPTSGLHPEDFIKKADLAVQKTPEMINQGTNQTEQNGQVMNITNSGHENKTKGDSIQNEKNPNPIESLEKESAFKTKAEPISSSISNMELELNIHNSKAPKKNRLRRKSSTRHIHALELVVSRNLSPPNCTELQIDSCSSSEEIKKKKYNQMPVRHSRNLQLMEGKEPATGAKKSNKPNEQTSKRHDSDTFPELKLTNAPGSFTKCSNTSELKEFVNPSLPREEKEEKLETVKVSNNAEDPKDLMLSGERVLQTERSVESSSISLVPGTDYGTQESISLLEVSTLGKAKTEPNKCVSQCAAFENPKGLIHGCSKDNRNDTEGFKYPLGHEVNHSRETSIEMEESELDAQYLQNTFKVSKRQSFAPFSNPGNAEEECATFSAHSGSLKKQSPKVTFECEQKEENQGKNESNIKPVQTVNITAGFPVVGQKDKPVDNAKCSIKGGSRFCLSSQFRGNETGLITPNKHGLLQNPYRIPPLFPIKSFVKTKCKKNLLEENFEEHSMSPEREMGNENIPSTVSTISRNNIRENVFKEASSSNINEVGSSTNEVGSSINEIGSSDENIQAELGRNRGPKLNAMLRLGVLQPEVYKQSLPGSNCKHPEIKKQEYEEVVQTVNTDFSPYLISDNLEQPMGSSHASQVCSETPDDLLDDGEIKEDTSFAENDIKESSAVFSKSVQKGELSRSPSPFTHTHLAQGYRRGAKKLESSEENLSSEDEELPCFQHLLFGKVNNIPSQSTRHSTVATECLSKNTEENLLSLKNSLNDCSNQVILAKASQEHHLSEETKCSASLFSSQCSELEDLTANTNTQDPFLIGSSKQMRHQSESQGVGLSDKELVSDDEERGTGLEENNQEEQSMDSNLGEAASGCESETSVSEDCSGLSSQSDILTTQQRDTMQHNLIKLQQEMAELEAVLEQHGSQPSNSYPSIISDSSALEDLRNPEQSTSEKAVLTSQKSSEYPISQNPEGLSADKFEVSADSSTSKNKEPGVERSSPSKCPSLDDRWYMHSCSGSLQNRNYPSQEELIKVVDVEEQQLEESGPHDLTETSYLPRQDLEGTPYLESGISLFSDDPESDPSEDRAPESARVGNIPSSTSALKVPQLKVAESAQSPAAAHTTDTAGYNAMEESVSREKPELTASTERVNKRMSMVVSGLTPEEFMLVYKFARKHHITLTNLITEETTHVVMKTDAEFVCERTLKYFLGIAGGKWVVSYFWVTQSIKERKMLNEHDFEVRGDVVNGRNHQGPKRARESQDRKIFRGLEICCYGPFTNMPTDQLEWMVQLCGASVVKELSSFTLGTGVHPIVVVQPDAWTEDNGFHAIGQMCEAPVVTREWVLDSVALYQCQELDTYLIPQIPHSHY

effect of a mutation on the interaction	Variant
disrupting interaction	Y28A
disrupting interaction	L21A

From IntAct's records for PubMed 19369211
